Patent publication US20160129100A1 (UVIC INDUSTRY PARTNERSHIPS, published 2016)

T1: Plasminogen-depleted human fibrinogen (human, UniProt P02671 20-629; P02675 31-491; P02679 27-437)
T1 construct: Bought protein, immobilized at 0.5 µg per well
T1 sequence 1: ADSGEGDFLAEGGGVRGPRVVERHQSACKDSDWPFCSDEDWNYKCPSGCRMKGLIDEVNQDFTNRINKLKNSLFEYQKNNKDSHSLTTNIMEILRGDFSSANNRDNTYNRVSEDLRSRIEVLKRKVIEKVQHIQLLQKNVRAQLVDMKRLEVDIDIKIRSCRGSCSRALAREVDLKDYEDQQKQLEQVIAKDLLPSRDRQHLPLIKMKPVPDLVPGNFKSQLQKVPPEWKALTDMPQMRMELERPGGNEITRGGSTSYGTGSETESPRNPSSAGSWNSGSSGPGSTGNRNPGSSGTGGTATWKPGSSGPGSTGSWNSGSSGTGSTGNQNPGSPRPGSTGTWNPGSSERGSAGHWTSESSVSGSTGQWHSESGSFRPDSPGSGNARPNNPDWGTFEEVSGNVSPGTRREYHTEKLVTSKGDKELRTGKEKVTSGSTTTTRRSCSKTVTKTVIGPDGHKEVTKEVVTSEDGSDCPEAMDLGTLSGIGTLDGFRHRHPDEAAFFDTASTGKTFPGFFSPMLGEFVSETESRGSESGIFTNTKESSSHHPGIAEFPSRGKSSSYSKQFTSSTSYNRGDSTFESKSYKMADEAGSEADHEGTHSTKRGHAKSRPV
T1 sequence 2: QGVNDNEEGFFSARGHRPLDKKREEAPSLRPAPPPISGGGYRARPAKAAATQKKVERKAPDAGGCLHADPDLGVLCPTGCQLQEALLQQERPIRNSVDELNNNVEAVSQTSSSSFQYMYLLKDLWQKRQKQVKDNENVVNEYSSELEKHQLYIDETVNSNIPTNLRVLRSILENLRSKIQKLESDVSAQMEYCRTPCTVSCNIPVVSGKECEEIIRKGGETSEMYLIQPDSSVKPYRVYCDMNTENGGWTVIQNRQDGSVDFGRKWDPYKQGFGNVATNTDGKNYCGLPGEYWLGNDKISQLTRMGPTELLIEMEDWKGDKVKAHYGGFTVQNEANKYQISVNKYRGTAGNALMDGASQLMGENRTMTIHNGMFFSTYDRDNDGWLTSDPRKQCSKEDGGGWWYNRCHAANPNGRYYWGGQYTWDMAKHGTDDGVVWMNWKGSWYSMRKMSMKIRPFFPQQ
T1 sequence 3: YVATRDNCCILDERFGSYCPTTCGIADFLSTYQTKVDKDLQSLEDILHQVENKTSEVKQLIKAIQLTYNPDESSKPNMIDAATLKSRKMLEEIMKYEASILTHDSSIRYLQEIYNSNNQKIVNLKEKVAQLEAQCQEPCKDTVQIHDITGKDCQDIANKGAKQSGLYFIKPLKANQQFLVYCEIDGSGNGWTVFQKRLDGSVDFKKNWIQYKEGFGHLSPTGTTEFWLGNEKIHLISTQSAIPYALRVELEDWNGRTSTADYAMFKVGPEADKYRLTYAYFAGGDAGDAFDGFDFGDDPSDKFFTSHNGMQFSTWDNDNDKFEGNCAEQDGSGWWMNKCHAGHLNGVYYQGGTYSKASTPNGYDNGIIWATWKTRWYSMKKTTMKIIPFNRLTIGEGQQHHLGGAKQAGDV


What was measured:
Human collagen type I = target: T2, Human collagen type I (human, UniProt P02452 162-1218; P08123 80-1119); assay: 96-well plate binding assay, immobilized host protein 0.5 µg/well, His-tagged peptide, A600
T2 construct: Bought protein, immobilized at 0.5 µg per well; also called collagen I

[1] = target: T3, fibronectin isolated from human plasma (human, UniProt P02751 32-2296); assay: as above
T3 construct: Bought protein, immobilized at 0.5 µg per well

[2] = target: T1, Plasminogen-depleted human fibrinogen; assay: as above
[3] = target: T1, Plasminogen-depleted human fibrinogen; assay: 96-well plate binding assay, immobilized host protein 0.5 µg/well, peptide 2.0 µg/well, A600
[4] = target: T1, Plasminogen-depleted human fibrinogen; assay: 96-well plate binding assay, immobilized host protein, His-tagged peptide, A600

T3 sequence (P02751 other isoform, or with tags, fused parts or gaps limits assumed): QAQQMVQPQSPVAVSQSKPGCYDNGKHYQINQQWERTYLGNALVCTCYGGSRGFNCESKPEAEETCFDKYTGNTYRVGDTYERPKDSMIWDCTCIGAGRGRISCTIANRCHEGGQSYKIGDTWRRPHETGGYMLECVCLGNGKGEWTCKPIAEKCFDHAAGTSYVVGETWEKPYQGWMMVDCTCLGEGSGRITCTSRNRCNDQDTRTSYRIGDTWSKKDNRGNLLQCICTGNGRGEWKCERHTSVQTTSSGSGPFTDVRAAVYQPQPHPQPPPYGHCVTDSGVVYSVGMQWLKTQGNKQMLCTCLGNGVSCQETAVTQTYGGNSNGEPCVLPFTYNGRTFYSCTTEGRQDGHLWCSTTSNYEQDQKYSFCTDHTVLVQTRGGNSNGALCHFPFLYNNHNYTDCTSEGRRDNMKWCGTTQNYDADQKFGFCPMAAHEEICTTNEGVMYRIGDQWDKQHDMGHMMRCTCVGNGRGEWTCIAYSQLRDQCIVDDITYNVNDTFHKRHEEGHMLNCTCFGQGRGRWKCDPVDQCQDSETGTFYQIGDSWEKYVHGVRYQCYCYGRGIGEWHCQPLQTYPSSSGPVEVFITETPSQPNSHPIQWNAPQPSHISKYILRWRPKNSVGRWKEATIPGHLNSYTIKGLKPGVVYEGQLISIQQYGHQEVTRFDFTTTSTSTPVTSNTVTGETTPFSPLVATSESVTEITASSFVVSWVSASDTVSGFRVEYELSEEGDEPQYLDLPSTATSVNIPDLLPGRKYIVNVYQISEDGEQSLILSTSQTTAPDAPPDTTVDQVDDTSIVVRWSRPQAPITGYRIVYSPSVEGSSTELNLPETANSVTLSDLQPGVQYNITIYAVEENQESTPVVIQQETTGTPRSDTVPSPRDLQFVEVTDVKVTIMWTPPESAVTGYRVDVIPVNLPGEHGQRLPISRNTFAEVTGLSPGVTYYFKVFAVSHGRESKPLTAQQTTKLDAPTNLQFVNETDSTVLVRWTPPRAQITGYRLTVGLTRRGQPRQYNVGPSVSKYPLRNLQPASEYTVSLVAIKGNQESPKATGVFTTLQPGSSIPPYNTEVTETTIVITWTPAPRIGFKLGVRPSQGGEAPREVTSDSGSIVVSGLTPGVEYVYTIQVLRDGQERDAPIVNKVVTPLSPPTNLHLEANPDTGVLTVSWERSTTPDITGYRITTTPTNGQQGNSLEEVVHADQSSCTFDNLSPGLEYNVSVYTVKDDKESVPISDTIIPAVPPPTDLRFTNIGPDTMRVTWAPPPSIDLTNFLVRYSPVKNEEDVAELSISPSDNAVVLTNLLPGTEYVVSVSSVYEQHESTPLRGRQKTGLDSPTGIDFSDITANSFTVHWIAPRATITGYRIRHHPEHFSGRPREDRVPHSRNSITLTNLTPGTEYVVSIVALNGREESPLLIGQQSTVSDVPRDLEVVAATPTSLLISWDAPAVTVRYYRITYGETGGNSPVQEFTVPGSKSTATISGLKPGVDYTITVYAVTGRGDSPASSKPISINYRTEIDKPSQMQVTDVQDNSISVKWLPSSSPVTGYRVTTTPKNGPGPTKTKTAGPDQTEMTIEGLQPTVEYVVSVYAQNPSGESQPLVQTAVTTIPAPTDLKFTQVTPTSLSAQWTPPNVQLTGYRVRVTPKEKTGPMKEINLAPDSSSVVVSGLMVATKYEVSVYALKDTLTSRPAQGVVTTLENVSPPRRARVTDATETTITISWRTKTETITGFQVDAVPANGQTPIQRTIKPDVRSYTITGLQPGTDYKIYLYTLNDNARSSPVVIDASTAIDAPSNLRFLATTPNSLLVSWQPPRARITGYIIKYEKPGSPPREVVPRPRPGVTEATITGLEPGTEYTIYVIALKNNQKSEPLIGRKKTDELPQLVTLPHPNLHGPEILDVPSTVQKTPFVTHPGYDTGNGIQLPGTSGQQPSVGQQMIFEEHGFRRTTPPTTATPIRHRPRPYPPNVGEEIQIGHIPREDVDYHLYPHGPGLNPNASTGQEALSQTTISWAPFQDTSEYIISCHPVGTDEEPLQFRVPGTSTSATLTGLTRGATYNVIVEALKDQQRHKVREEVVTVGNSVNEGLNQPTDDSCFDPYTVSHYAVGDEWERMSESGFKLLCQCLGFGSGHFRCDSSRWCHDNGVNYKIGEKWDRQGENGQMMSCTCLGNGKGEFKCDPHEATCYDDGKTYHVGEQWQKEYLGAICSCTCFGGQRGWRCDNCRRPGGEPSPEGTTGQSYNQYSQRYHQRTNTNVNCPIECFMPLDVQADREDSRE
T2 sequence (P02452 162-1218, chain 1 of 2): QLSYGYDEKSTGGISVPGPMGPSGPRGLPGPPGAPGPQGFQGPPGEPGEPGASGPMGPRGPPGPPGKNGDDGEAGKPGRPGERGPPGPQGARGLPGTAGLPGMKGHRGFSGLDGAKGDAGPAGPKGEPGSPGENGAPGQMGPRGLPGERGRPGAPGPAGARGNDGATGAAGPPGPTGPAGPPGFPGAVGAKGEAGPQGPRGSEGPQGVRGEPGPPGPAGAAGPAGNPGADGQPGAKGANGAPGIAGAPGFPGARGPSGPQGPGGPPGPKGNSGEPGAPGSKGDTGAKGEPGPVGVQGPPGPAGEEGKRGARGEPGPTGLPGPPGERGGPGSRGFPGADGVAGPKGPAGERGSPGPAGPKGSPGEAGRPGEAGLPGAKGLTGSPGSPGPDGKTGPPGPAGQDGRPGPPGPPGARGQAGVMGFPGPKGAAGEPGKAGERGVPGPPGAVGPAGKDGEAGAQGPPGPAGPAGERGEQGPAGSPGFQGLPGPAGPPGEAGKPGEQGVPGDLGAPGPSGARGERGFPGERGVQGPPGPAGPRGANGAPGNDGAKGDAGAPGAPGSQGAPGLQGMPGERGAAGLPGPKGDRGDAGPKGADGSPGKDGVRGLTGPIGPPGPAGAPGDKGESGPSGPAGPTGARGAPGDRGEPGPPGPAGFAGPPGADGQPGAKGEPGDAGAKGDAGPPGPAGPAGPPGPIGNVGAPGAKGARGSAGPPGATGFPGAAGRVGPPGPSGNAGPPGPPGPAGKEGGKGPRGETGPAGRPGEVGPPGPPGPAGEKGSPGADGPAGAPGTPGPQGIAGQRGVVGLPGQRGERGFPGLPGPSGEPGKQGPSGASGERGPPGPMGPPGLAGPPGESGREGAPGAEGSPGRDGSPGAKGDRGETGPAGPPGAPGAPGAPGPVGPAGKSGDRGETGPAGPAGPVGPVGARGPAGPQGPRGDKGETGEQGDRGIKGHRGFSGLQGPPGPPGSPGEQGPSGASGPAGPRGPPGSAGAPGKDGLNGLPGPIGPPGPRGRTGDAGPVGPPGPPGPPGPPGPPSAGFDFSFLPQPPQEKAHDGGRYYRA
T2 sequence (P08123 80-1119, chain 2 of 2): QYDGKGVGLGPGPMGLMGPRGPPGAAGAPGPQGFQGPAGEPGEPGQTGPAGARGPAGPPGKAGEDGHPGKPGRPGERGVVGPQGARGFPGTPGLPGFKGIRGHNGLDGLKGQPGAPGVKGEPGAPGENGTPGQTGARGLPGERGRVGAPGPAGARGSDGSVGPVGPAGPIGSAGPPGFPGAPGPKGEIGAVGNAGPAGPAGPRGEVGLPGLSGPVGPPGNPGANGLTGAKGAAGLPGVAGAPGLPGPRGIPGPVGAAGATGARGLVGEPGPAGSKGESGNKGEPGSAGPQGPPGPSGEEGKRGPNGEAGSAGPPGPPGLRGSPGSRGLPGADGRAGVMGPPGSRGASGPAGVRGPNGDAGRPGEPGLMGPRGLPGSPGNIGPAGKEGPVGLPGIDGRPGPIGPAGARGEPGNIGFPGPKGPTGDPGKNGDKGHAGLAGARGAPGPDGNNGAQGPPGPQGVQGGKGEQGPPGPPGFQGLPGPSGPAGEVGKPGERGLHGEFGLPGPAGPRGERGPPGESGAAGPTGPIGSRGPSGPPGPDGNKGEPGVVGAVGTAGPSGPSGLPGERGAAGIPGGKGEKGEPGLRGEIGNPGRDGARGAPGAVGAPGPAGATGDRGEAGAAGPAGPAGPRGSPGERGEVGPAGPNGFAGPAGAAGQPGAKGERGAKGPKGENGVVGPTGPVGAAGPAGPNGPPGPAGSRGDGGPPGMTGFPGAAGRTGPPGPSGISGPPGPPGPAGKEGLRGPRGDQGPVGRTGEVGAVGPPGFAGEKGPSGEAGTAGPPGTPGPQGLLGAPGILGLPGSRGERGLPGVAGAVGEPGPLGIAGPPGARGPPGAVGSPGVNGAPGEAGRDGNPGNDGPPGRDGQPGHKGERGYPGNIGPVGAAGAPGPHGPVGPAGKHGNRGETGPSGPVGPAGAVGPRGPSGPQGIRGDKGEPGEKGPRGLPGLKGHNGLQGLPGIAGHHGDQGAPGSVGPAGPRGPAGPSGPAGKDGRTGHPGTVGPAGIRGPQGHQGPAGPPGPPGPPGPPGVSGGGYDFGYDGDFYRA

Binder	binding result (Human collagen type I)	binding result [1]	binding result [2]	binding result [3]	binding result [4]
HHHHHHAMRIALWNRATHGEQGALQHLLAG (One of 13 overlapping synthetic 24-mers spanning Tp0751 T46-P237; also called peptide 5) [Tp0751 peptide p5]	no binding (tested: 2.0 µg per well)	no binding (tested: 2.0 µg per well)	no binding (tested: 2.0 µg per well)	–	–
HHHHHHSIRRRLEVTFESHEVIHVRAVEDV (also called peptide 11) [Tp0751 peptide p11]	–	–	–	binds	–
HHHHHHRKTVSFLTRNTAISSIRRRLEVTF (One of 13 overlapping synthetic 24-mers spanning Tp0751 T46-P237; also called peptide 10) [Tp0751 peptide p10]	–	–	–	–	binds
HHHHHHTDPRSHGNAPPAPVGGAAQTHTQP (One of 13 overlapping synthetic 24-mers spanning Tp0751 T46-P237; also called peptide 3) [Tp0751 peptide p3]	no binding (tested: 2.0 µg per well)	no binding (tested: 2.0 µg per well)	no binding (tested: 2.0 µg per well)	–	–
HHHHHHTSNDWGQSLAILHEPQLGILQAGI (Scrambled synthetic peptide) [scrambled version of Tp0751 peptide 6 (p6scr)]	no binding (tested: 2.0 µg per well)	no binding (tested: 2.0 µg per well)	no binding (tested: 2.0 µg per well)	–	–
HHHHHHQGALQHLLAGLWIQTEISPNSGDI (One of 13 overlapping synthetic 24-mers spanning Tp0751 T46-P237; also called peptide 6) [Tp0751 peptide p6]	–	–	–	binds	–
HHHHHHTEISPNSGDIHPLLFFDREHAEIT (One of 13 overlapping synthetic 24-mers spanning Tp0751 T46-P237; also called peptide 7) [Tp0751 peptide p7]	no binding (tested: 2.0 µg per well)	no binding (tested: 2.0 µg per well)	no binding (tested: 2.0 µg per well)	–	–
HHHHHHFFDREHAEITFSRASVQEIFLVDS (One of 13 overlapping synthetic 24-mers spanning Tp0751 T46-P237; also called negative control peptide) [Tp0751 peptide p8]	no binding (tested: 2.0 µg per well)	no binding (tested: 2.0 µg per well)	no binding (tested: 2.0 µg per well)	–	–
HHHHHHMRLTPGWHTANQIRPQAQGVATAA (Scrambled synthetic peptide) [scrambled version of Tp0751 peptide 4 (p4scr)]	no binding (tested: 2.0 µg per well)	no binding (tested: 2.0 µg per well)	no binding (tested: 2.0 µg per well)	–	–
HHHHHHTSRVKLTISFERSLVNRTRTARFI (Scrambled synthetic peptide; also called p10 scrambled peptide; scrambled version of peptide 10) [scrambled version of Tp0751 peptide 10 (p10scr)]	–	–	–	–	binds
